Reference: patent US20190201496A1

Molecular target: mβ2m
Assay: SPR; pH 6

| Substance | Kd |
| --- | --- |
| Human AFP N-His | 280 nM |
| Mouse AFP N-His | 1030 nM |
